B1: mRNA-splicing (parent)
chain: AGUUGCUGCUGGGAGCUCCAGCACAGUGAAAUGGACAGAAGGGCAGAGCAA

Variants of: B1
Assay: exon inclusion enrichment index; higher = more inclusion; WT1 exon 5 minigene, HEK293

Row | Variant | exon inclusion enrichment index
1 | U3C U4A G5C C6U G8C C9U U10C | 1.61
2 | G2U U3A C6A U7A C9A U10A | 1.45
3 | U3G U4A C6A U7C C9A U10C | 1.52
4 | G2A U3C G5C C6U G8C C9U U10C | 2.03
5 | G2A U3C G5A U7C G8A U10C | 2.1
6 | U4A G5C U7C G8A U10C | 2.34
7 | U3C G5A C6G U7G C9A | 0.00112
8 | U3G U4C G5A C6G U7G C9A | 0.0394
9 | G2U U3A | 0.342
10 | G2U U3C | 0.216
11 | G2U U3G | 0.359
12 | G2U U3C G5C C6A U7C G8A U10A | 0.619
13 | U4A G5C | 0.183
14 | U4A G5A | 0.00706
15 | U4A G5U | 0.0569
16 | U3C U4G G5C C6A U7C G8A U10A | 0.239
17 | U4A G5U C6G U7G C9A | 0.0707
18 | U4C G5C C6A U7C G8A U10A | 0.286
19 | U3A C6A U7C C9A U10C | 3.37
20 | U3A U4A C6A U7C C9A U10C | 1.08
21 | U3A U4G G5U G8U C9U | 0.143
22 | U4C C6U U7A G8U C9A | 1.12
23 | G2A U3C C6A U7A C9A U10A | 0.648
24 | G2A U3C G5U G8U C9U | 0.198

Row | Variant | exon inclusion enrichment index
25 | G2U U3C G5C C6U G8C C9U U10C | 3.63
26 | U4C G5U C6G U7G C9A | 0.461
27 | U4A C6A U7A C9A U10A | 0.122
28 | U3A U4C G5U G8U C9U | 0.407
29 | U4C G5C C6U U7A G8U C9A | 0.704
30 | U3G G5A U7C G8A U10C | 0.68
31 | U4C G5A C6A U7A C9A U10A | 0.662
32 | U4A C6A U7C G8A U10A | 0.0102
33 | U3A U4G G5A C6G U7G C9A | 0.018
34 | G2C U3G G5U G8U C9U | 0.38
35 | U3A U4C G5A C6G U7G C9A | 0.0761
36 | U3G U4C G5U G8U C9U | 0.0275
37 | U4C G5A U7C G8A U10C | 3.18
38 | U4C G5U C6A U7C G8A U10A | 0.501
39 | G2C U3C | 0.044
40 | G2C U3G | 0.163
41 | G2C U3A | 0.0779
42 | U3C C6A U7A C9A U10A | 1.1
43 | U4C G5A | 0.0447
44 | U4C G5U | 0.105
45 | U4C G5C | 0.153
46 | U3C U4C G5A U7C G8A U10C | 2.69
47 | G2A U3A G5C C6A U7C G8A U10A | 0.0895
48 | U4A G5A C6U G8C C9U U10C | 0.574

Row | Variant | exon inclusion enrichment index
49 | U3A G5C C6U G8C C9U U10C | 2.74
50 | U3G U4G G5C C6G U7C U10C | 0.836
51 | G2A G5A C6G U7G C9A | 0.0189
52 | U3A U4C G5A C6U U7A G8U C9A | 0.3
53 | U3G U4C C6A U7C C9A U10C | 3.64
54 | U4C C6A U7C G8A U10A | 1.12
55 | U3A G5C C6G U7C U10C | 4.21
56 | G2C U3G G5A C6G U7G C9A | 0.00533
57 | U3G U4C C6A U7A C9A U10A | 1.04
58 | U3G U4A | 0.0184
59 | U3G U4C | 0.16
60 | U3G U4G | 0.00805
61 | G2C G5A U7C G8A U10C | 2
62 | U3G U4A G5C C6U G8C C9U U10C | 0.91
63 | U4G C6A U7C G8A U10A | 0.348
64 | U3G U4G G5A U7C G8A U10C | 1.93
65 | U3G U4C G5C C6G U7C U10C | 2.03
66 | G2C U3G G5C C6G U7C U10C | 2.57
67 | U3G U4A C6A U7A C9A U10A | 0.213
68 | U3C U4G G5A C6G U7G C9A | 0.106
69 | U3G U4C G5A C6U U7A G8U C9A | 0.122
70 | U4A G5U G8U C9U | 0.252
71 | U4C G5U U7C G8A U10C | 1.83
72 | U3G U4G C6A U7A C9A U10A | 0.0489

Row | Variant | exon inclusion enrichment index
73 | U4A G5C C6G U7G C9A | 0.594
74 | U4A G5U C6G U7C U10C | 1.96
75 | G2U U3A C6A U7C C9A U10C | 4.33
76 | G2C U3C G5C C6G U7C U10C | 3.45
77 | G2U U3G G5A U7C G8A U10C | 4.12
78 | G2A C6A U7C C9A U10C | 4.19
79 | U3A U4A G5C C6A U7C G8A U10A | 0.0877
80 | U4C G8U C9U | 2.06
81 | U3C U4C C6A U7A C9A U10A | 1.44
82 | G2U G5A C6G U7G C9A | 0.0266
83 | U4C G5U C6A U7A C9A U10A | 0.296
84 | G2C U3G G5C C6A U7C G8A U10A | 0.148
85 | G2A G5C C6A U7C G8A U10A | 0.316
86 | U4C G5U C6U U7A G8U C9A | 0.269
87 | G2A U3A G5A C6U U7A G8U C9A | 0.0687
88 | U4C G5C C6G U7C U10C | 3.81
89 | U4C C6A U7C C9A U10C | 4.65
90 | U3A U4C G5A U7C G8A U10C | 2.99
91 | U4G G5A C6A U7C C9A U10C | 3.42
92 | G2C U3A G5A C6U U7A G8U C9A | 0.0584
93 | U3G U4G G5C C6U G8C C9U U10C | 0.152
94 | G2C U3A C6A U7C C9A U10C | 2.73
95 | G2A C6A U7A C9A U10A | 0.929
96 | G2U U3G G5A C6G U7G C9A | 0.0222

Row | Variant | exon inclusion enrichment index
97 | U4C G5U C6U G8C C9U U10C | 1.08
98 | G2U U3G C6A U7A C9A U10A | 2.07
99 | U4A U7C G8A U10C | 0.474
100 | U3C U4A G5C C6A U7C G8A U10A | 0.0745
101 | U4A G8U C9U | 0.0172
102 | U4C G5C G8U C9U | 0.112
103 | U4C G5U C6A U7C C9A U10C | 4.16
104 | G2C U3A C6A U7A C9A U10A | 0.863
105 | U3G G5A C6U U7A G8U C9A | 0.0113
106 | G2U U3A G5A C6G U7G C9A | 0.0451
107 | U4C G5A C6A U7C G8A U10A | 0.437
108 | U4A | 0.00347
109 | U4G | 0.0792
110 | U4C | 0.365
111 | U4C G5U G8U C9U | 0.371
112 | G2C U3A G5A C6G U7G C9A | 0.0159
113 | U3A U4A C6A U7A C9A U10A | 0.441
114 | U4A G5U C6A U7A C9A U10A | 0.0651
115 | U3G U4G G5A C6U U7A G8U C9A | 0.0433
116 | U3C U4C C6A U7C C9A U10C | 4.17
117 | U3C U4A G5A C6G U7G C9A | 0.0853
118 | U3G U4A G5A C6G U7G C9A | 0.0126
119 | G2A G5C C6G U7C U10C | 3.98
120 | U3A G5A U7C G8A U10C | 3.2

Row | Variant | exon inclusion enrichment index
121 | G2A U3G C6A U7A C9A U10A | 0.935
122 | G2C U3G G5A U7C G8A U10C | 2.64
123 | G2U U3C G5A C6G U7G C9A | 0.0791
124 | U4C G5C C6G U7G C9A | 2.21
125 | U3G U4A G5U G8U C9U | 0.0683
126 | G2U U3G G5C C6A U7C G8A U10A | 0.503
127 | U4C G5A C6U U7A G8U C9A | 0.47
128 | G2A U3C G5C C6A U7C G8A U10A | 0.124
129 | G2U U3C G5U G8U C9U | 0.965
130 | G2U U3A G5C C6A U7C G8A U10A | 0.383
131 | G2C G5C C6A U7C G8A U10A | 0.0904
132 | G2U U3C G5A U7C G8A U10C | 4.11
133 | G2U G5A U7C G8A U10C | 3.56
134 | U4A G5A C6A U7C G8A U10A | 0.0681
135 | G2U U3A G5U G8U C9U | 0.51
136 | U3C G5A C6U U7A G8U C9A | 0.098
137 | U4A C6U U7A G8U C9A | 0.00525
138 | U3G G5C C6G U7C U10C | 1.32
139 | U3C U4A G5U G8U C9U | 0.356
140 | U3C U4A G5A C6U U7A G8U C9A | 0.17
141 | U3A U4A G5C C6U G8C C9U U10C | 1.8
142 | U4G G5A C6A U7A C9A U10A | 0.315
143 | U3G U4C G5C C6A U7C G8A U10A | 0.139
144 | U4C G5U C6G U7C U10C | 4.01

Row | Variant | exon inclusion enrichment index
145 | U4C C6G U7C U10C | 3.95
146 | G2C C6A U7A C9A U10A | 0.788
147 | U3C U4A G5C C6G U7C U10C | 2.55
148 | U3G U4G G5U G8U C9U | 0.0141
149 | U3A G5A C6G U7G C9A | 0.0155
150 | U3C U4G G5C C6G U7C U10C | 1.31
151 | G2A U3A C6A U7A C9A U10A | 0.777
152 | G2C U3C G5C C6U G8C C9U U10C | 1.91
153 | U4A G5U C6U G8C C9U U10C | 0.723
154 | G2C G5A C6G U7G C9A | 0.0065
155 | G2A G5C C6U G8C C9U U10C | 2.9
156 | G2C U3A G5C C6U G8C C9U U10C | 1.71
157 | G2A U3C G5A C6G U7G C9A | 0.0183
158 | U3G C6A U7C C9A U10C | 0.785
159 | G2U G5C C6U G8C C9U U10C | 3.26
160 | U4G G5A | 0.101
161 | U3C U4C G5C C6G U7C U10C | 2.61
162 | G2U U3G G5A C6U U7A G8U C9A | 0.348
163 | G2A U3A G5A C6G U7G C9A | 0.00701
164 | G2A U3A C6A U7C C9A U10C | 2.68
165 | G2C U3C C6A U7C C9A U10C | 2.79
166 | G2C U3G C6A U7A C9A U10A | 1.14
167 | U3A U4G G5C C6U G8C C9U U10C | 0.155

Source: the RNAGym collection of RNA variant scans (doi:10.1101/gr.219683.116)
